According to article PMC8673433 (ImmunoHorizons, 2021):

Columns and labels:
[1] = molecular target: full-length human TLR4 encoded by pBIND-TLR4 (human) (UniProt O00206); test: two-hybrid
[2] = molecular target: full-length human TLR4 encoded by pBIND-TLR4 (human, UniProt O00206 24-839); test: two-hybrid
Chain of full-length human TLR4 encoded by pBIND-TLR4 (O00206 24-839): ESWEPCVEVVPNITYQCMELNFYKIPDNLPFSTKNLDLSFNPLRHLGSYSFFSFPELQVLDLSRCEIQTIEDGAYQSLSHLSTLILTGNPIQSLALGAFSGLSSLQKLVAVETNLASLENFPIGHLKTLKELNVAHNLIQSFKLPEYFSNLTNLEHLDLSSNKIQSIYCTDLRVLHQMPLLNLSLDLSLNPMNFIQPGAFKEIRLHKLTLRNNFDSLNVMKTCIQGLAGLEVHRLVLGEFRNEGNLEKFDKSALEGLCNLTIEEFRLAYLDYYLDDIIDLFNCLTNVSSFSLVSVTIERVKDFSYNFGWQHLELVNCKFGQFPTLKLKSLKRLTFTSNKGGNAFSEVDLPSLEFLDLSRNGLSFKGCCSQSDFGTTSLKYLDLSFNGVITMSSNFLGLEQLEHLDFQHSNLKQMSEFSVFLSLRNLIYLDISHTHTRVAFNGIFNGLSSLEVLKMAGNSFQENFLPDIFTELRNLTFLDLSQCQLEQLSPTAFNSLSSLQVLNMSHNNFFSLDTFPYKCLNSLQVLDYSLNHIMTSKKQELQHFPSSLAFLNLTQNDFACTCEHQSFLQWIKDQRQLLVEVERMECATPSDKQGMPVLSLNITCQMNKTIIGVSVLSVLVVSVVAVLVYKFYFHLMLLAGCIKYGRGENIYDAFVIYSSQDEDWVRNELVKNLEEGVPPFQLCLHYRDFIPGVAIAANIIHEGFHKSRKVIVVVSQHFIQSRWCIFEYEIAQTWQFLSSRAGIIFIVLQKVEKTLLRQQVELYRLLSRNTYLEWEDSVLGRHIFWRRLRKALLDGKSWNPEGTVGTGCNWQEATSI

Chain of full-length human TLR4 encoded by pBIND-TLR4 (human) (O00206 24-839): as above

## SPA4 peptide alanine mutant NYTXXXRG-12–19→AAAXXXAA encoded by pACT (mammalian two-hybrid fusion)
[1]
  percent binding to TLR4 relative to SPA4 peptide (RLU): 74%

## GAFRYSDGTPVNYTNWYRGE [SPA4 peptide alanine mutant D-2→A encoded by pACT (mammalian two-hybrid fusion)]
[2]
  percent binding to TLR4 relative to SPA4 peptide (RLU): 81%
